Data on two substances can be found in US20120183527A1.

Assay [1] deals with N-terminal monomer (Aβ monomer coupled at the amino terminus) (UniProt P05067). In words: SPR, biotin-tagged Aβ on Neutravidin sensor (N-terminal monomer sensor). For orientation: In SPR one partner is held on a chip, and binding of the other changes the refractive index at the surface.
The target of assay [2] is C-terminal monomer (Aβ monomer coupled at the carboxyl terminus) (UniProt P05067). In words: SPR, biotin-tagged Aβ on Neutravidin sensor (C-terminal monomer sensor).
Assay [3] deals with biotinylated Aβ oligomer bound to Neutravidin (Aβ42 oligomer SPR sensor) (UniProt P05067). In words: SPR, biotin-tagged Aβ on Neutravidin sensor (Oligomer sensor).
For assay [4], the target named is Aβ fibril (Aβ42 fibril) (UniProt P05067). In words: ELISA, Aβ fibril plate, typical half maximum titer. For orientation: In an ELISA, binding on a coated surface is turned into a signal by an enzyme label.
For assay [5] the target is unchanged. In words: ELISA, best fit of curves, blank plate against Aβ fibril plate.
Assay [6] concerns the target Aβ monomer peptide (Aβ42 Peptide Monomer) on ELISA plates (UniProt P05067). In words: competition ELISA on Aβ monomer plates, IVIG in 3-fold dilutions from 1 mg/ml, competitor thyroglobulin 40 µg/ml.
Assay [7] deals with globular Aβ oligomer (Aβ42 oligomers) on ELISA plates (UniProt P05067). In words: ELISA on globular Aβ oligomer plates with chaotropic salt elution (avidity); this end, printed '>4M', is untreated IVIG (50% not reached at 4M, the highest concentration used).
The target of assay [8] is Aβ monomer peptide (Aβ42 Peptide Monomer) on ELISA plates (UniProt P05067). In words: ELISA, Aβ monomer plate, typical half maximum titer.
The target is the same in assay [9]. In words: ELISA, Aβ monomer plate, fitted maximum.
Assay [10] has as its target globular Aβ oligomer (Aβ42 oligomers) on ELISA plates (UniProt P05067). In words: ELISA, Aβ oligomer plate, typical half maximum titer.
Assay [11] addresses Aβ fibril (Aβ42 fibril) (UniProt P05067). In words: ELISA, Aβ fibril plate, fitted maximum.
Assay [12] shares this target. In words: ELISA half-max titer, Aβ fibril plate against blank plate.
Assay [13] addresses globular Aβ oligomer (Aβ42 oligomers) on ELISA plates (UniProt P05067). In words: ELISA, Aβ oligomer plate, fitted maximum.
Assay [14] shares this target. In words: ELISA half-max titer, Aβ oligomer plate against blank plate.
The target in assay [15] is Aβ monomer peptide (Aβ42 Peptide Monomer) on ELISA plates (UniProt P05067). In words: ELISA, best fit of curves, blank plate against Aβ monomer plate.
For assay [16] the target is unchanged. In words: ELISA half-max titer, Aβ monomer plate against blank plate.
For assay [17], the target named is globular Aβ oligomer (Aβ42 oligomers) on ELISA plates (UniProt P05067). In words: ELISA, best fit of curves, blank plate against Aβ oligomer plate.

globular Aβ oligomer (Aβ42 oligomers) on ELISA plates, sequence (P05067 672-713 limits assumed): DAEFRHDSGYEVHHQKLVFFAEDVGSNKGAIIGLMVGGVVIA
Aβ fibril (Aβ42 fibril), sequence (P05067 672-713 limits assumed): as above
Aβ monomer peptide (Aβ42 Peptide Monomer) on ELISA plates, sequence (P05067 672-713 limits assumed): as above
C-terminal monomer (Aβ monomer coupled at the carboxyl terminus), sequence (P05067 672-713): as the sequence (P05067 672-713 limits assumed) above
biotinylated Aβ oligomer bound to Neutravidin (Aβ42 oligomer SPR sensor), sequence (P05067 672-713 limits assumed): as above
N-terminal monomer (Aβ monomer coupled at the amino terminus), sequence (P05067 672-713): as the sequence (P05067 672-713 limits assumed) above

For 6E10 monoclonal anti-Aβ antibody, the Kd (as a rule, the equilibrium constant for the complex coming apart) came to 0.158 µM in assay [1], 0.047 µM in [2] and 0.069 µM in [3].
Consider “intravenous immunoglobulin (IVIG; Gammagard Liquid, Baxter) (antibody)”, for which the half maximum titer in the assay with Aβ fibril (Aβ42 fibril) [4] amounted to 15.8; in [8] it was 42.8; in [10], 9.42. For the same substance, the fold by which maximum binding on blank plates exceeds that on the amyloid plate (with Aβ fibril (Aβ42 fibril) [5]; in [15]; in [17]) was 1.6 fold throughout. Moreover, the percent of control binding in presence of competitor in assay [6] was 50%. Further, in assay [7], the ammonium thiocyanate concentration for 50% maximal binding is 4 M. Moreover, the maximum binding value (A450 nm units) stood at 2.7 in assay [9], 2.82 with Aβ fibril (Aβ42 fibril) [11] and 2.88 in [13]. Besides, the fold by which the blank plate half maximum binding titer is lower than the titer on this plate in the assay with Aβ fibril (Aβ42 fibril) [12] was found to be 6.5 fold; in assay [14], 3.9 fold; in assay [16], 17.6 fold.
